Laboratory results reported in patent publication EP4471049A1 (Zealand Pharma A/S, priority 2023, dated 2024).
Like-named read-outs stand apart in the source and are kept apart here. *1 amine or outer side, *2 acyl side, *3 side chain or, on linkers, in order; H or OH if unused. Bridges are numbered along the chain shown (N, C = ends). [ ]: non-standard residue; d: D form. The star is where a group is joined. 4‑Aminomethyl‑phenylacetyl = 4-aminomethyl-phenylacetyl unit, its amine closes the lactam, O=C(Cc1ccc(CN[*:1])cc1)[*:2]; NH(4-(3-pyridyl)butyl) = c1cncc(CCCCN*)c1; NH(2-(3-pyridyl)ethyl) = c1cncc(CCN*)c1; 2Nal = N[C@@H](Cc1ccc2ccccc2c1)C(=O)O; AEF = NCCOc1ccc(C[C@H](N)C(=O)O)cc1; 3Pal = N[C@@H](Cc1cccnc1)C(=O)O; αMeL = CC(C)C[C@](C)(N)C(=O)O; Dab = NCC[C@H](N)C(=O)O

B1: Compound 7 (peptide)
peptide: [4‑Aminomethyl‑phenylacetyl]SEWQ[Dab][AEF][2Nal][αMeL]E[Dab]-{NH(2-(3-pyridyl)ethyl)}
modifications: lactam N-10, 3-6
SMILES: CC(C)C[C@]1(C)NC(=O)[C@H](Cc2ccc3ccccc3c2)NC(=O)[C@H](Cc2ccc(OCCN)cc2)NC(=O)[C@@H]2CCNC(=O)CC[C@H](NC(=O)[C@H](CO)NC(=O)Cc3ccc(cc3)CNC(=O)CC[C@@H](C(=O)N[C@@H](CCN)C(=O)NCCc3cccnc3)NC1=O)C(=O)N[C@@H](Cc1c[nH]c3ccccc13)C(=O)N[C@@H](CCC(N)=O)C(=O)N2
B2: Ref 122 (peptide)
peptide: [4‑Aminomethyl‑phenylacetyl]SEWQ[Dab][AEF][2Nal][αMeL]E[Dab][3Pal]-NH2
modifications: lactam N-10, 3-6
SMILES: CC(C)C[C@]1(C)NC(=O)[C@H](Cc2ccc3ccccc3c2)NC(=O)[C@H](Cc2ccc(OCCN)cc2)NC(=O)[C@@H]2CCNC(=O)CC[C@H](NC(=O)[C@H](CO)NC(=O)Cc3ccc(cc3)CNC(=O)CC[C@@H](C(=O)N[C@@H](CCN)C(=O)N[C@@H](Cc3cccnc3)C(N)=O)NC1=O)C(=O)N[C@@H](Cc1c[nH]c3ccccc13)C(=O)N[C@@H](CCC(N)=O)C(=O)N2
B3: Compound 13 (peptide)
peptide: [4‑Aminomethyl‑phenylacetyl]SEWQ[Dab][AEF][2Nal][αMeL]E[Dab][dH]-NH2
modifications: lactam N-10, 3-6
SMILES: CC(C)C[C@]1(C)NC(=O)[C@H](Cc2ccc3ccccc3c2)NC(=O)[C@H](Cc2ccc(OCCN)cc2)NC(=O)[C@@H]2CCNC(=O)CC[C@H](NC(=O)[C@H](CO)NC(=O)Cc3ccc(cc3)CNC(=O)CC[C@@H](C(=O)N[C@@H](CCN)C(=O)N[C@H](Cc3c[nH]cn3)C(N)=O)NC1=O)C(=O)N[C@@H](Cc1c[nH]c3ccccc13)C(=O)N[C@@H](CCC(N)=O)C(=O)N2

Experiments:
[1] = target: T1, Nluc-IL23R fusion protein (human, UniProt Q5VWK5 22-629); experiment: BRET competition vs TAMRA-labelled peptide, Nluc-IL23R membranes
T1 construct: range 22-629; expressed with a secretion signal in HEK293 cells; used as crude membrane preparation; also called hIL-23R; human IL-23R; not shown: Nanoluc protein from the expression plasmid N1371 (Promega), N-terminal of IL-23R
T1 sequence (looked up): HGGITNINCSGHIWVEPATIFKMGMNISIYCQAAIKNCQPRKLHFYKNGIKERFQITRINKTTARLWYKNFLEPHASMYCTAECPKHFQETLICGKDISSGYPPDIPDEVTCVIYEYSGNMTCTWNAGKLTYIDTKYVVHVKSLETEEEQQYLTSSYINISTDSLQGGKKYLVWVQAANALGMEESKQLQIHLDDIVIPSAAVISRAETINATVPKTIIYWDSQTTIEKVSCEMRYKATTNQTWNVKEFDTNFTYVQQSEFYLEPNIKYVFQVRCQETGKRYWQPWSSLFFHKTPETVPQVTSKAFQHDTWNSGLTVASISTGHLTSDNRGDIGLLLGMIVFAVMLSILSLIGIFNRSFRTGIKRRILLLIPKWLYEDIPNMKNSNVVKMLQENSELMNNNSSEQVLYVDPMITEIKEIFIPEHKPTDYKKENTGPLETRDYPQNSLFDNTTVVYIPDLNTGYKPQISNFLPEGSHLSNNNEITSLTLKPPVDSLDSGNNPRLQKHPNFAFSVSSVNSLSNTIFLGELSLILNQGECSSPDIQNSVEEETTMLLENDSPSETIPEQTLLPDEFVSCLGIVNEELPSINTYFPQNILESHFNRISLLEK

[2] = target: T2, human IL-23R endogenously expressed on DB cells (human, UniProt Q5VWK5 24-629); experiment: cell-based or functional assay
T2 sequence (looked up): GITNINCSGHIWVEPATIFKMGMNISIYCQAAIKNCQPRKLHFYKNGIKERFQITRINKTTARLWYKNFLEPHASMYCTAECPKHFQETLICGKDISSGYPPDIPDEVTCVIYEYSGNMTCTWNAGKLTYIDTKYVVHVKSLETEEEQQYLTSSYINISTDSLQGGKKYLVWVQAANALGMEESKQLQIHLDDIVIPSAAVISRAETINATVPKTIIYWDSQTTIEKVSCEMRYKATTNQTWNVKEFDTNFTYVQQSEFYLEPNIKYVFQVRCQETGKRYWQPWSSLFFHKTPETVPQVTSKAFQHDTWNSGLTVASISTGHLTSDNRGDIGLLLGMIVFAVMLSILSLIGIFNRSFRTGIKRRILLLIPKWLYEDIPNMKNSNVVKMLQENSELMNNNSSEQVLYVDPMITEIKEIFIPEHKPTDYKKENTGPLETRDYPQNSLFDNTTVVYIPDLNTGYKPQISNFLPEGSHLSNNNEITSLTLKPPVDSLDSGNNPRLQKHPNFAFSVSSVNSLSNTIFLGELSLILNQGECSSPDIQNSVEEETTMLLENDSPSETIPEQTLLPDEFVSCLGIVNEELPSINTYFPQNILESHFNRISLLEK

[3] = target: T2, human IL-23R endogenously expressed on …; experiment: cell-based or functional assay; remark: listed apart in the source
[4] = target: T2, human IL-23R endogenously expressed on …; experiment: cell-based or functional assay; remark: listed apart in the source
[5] = target: T2, human IL-23R endogenously expressed on …; experiment: cell-based or functional assay; remark: listed apart in the source
[6] = target: T1, Nluc-IL23R fusion protein; experiment: BRET competition vs TAMRA-labelled peptide, Nluc-IL23R membranes; remark: listed apart in the source
[7] = target: T2, human IL-23R endogenously expressed on …; experiment: cell-based or functional assay; remark: listed apart in the source

| Binder | % displacement (hIL-23R binding) [1] [%] | hIL-23 (pSTAT3) antagonist % inhibition [2] [%] | hIL-23 (pSTAT3) antagonist IC50 [2] | IC50 (pSTAT3) [3] | IC50 [1] [pM] | IC50 (pSTAT3) [4] | IC50 (pSTAT3) [5] [pM] | % displacement (hIL-23R binding) [6] [%] | IC50 (pSTAT3) [7] [pM] |
| --- | --- | --- | --- | --- | --- | --- | --- | --- | --- |
| B1 | 102 | 98 | 0.13 nM | 0.13 nM |  |  |  |  |  |
| [4‑Aminomethyl‑phenylacetyl]SEWQ[Dab][AEF][2Nal][αMeL]E[Dab]-{NH(4-(3-pyridyl)butyl)} (lactam N-10, 3-6) [Compound 6] | 103 | 99 | 3.2 nM | 3.2 nM | 37 |  |  |  |  |
| B2 |  | 99 | 28 pM | 28 pM |  | 28 pM | 28 | 97 | 28 |
| B3 | 100 | 99 | 6.8 nM |  |  | 6.8 nM |  |  |  |
